One block for each molecule: values may come before it.
Assays:
mouse AT1b receptor [1] = assay: Emulsion autoradiography of 125I-[Sar1,Ile8]-Ang II binding to transfected COS-7 cells (positive control); settings: 1 uM DuP753; 200 pM radioligand, 2 h, room temperature
Procedure: cDNA prepared from size-fractionated (>1 kb) poly(A)^+ RNA (Sprague-Dawley whole rat fetus, 18 days postcoitum) was ligated into an expression vector pcDNAI (Invitrogen), and amplified in 900 pools of 1,000 clones. Plasmid DNA prepared from every 8 pools by the alkali lysis method was transfected over 2-3 h using DEAE-dextran/chloroquine into COS-7 cells grown on glass chamber slides (Nunc) (Mathews, L. S. & Vale, W. W. Cell 65, 973-982 (1991)). […] Cells were then washed four times with cold 50 mM Tris-HCl, pH 7.4, fixed with 0.1% glutaraldehyde at 4 C and subjected to emulsion autoradiography (Mathews, L. S. & Vale, W. W. Cell 65, 973-982 (1991)). […] Positive pool (RF904) which gave 20 DuP753-resistant positive cells was divided into subpools and rescreened, and after three rounds of screening a single clone pMRAT2 was isolated. Sequencing of both strands of clone pMRAT2 was done by the dideoxy chain termination method with Sequenase (USB).

mouse AT2 receptor = target: T1, mouse AT2 receptor (Mus musculus, UniProt P35374); assay: [125I]CGP42112A binding / displacement on membranes of COS-7 cells transfected with mouse AT2 receptor cDNA (MC5); settings: 0.2 nM [125I]CGP42112A
T1 construct: expressed in transfected cells; host or cells: COS-7
T1 sequence (P35374 1-363): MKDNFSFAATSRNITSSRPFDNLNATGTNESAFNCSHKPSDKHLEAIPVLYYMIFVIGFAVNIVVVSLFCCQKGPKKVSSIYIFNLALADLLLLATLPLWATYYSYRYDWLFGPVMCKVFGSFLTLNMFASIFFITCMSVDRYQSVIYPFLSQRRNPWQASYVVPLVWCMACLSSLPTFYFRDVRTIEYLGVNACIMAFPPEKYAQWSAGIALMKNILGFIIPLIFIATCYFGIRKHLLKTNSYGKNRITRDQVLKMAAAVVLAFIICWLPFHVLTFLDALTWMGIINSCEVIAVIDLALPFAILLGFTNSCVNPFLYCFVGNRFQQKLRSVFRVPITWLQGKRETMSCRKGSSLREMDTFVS
Excerpt: Materials. […] Louis, Mo.). […] Expression in COS-7 Cells and Ligand Binding Assay. […] The transfected cells were harvested and homogenized. The 100,000×g pellet of this homogenate was suspended and used as a membrane fraction.

rat AT2 receptor = target: T2, rat AT2 receptor (Rattus norvegicus, UniProt P35351); assay: Radioligand binding / displacement of 125I-CGP42112A on membranes of pMRAT2-transfected COS-7 cells; settings: for order of inhibition potency (competition profiles): displacement of 125I-CGP42112A
T2 construct: pMRAT2, a rat AT2 receptor full-length cDNA cloned into the expression vector pcDNA I; expressed in transfected cells; host or cells: COS-7 (transient)
T2 sequence (P35351 1-363): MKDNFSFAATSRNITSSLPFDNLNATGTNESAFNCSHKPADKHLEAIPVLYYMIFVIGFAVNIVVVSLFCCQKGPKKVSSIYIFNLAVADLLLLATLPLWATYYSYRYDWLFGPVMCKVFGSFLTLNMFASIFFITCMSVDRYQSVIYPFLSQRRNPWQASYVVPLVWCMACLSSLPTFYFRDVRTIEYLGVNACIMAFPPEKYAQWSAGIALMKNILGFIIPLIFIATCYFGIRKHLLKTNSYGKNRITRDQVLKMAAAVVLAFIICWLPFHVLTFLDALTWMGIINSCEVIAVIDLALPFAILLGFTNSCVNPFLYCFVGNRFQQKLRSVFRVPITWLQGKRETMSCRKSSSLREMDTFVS
Procedure: cDNA prepared from size-fractionated (>1 kb) poly(A)^+ RNA (Sprague-Dawley whole rat fetus, 18 days postcoitum) was ligated into an expression vector pcDNAI (Invitrogen), and amplified in 900 pools of 1,000 clones. […] Sequencing of both strands of clone pMRAT2 was done by the dideoxy chain termination method with Sequenase (USB).
2 h after incubation at room temperature, bound and free ligands were separated with GF/C filters (Whatman). […] Each experiment was carried out at least twice in duplicate, and the results shown here represent one experiment.

cloned AT2 receptor [2] = assay: Intracellular calcium (fura-2) in AT2-transfected COS-7 cells; format: cell-based, rat; settings: 1 uM Ang II
Procedure: (§1) Intracellular IP3 levels were measured using radioreceptor assay (NEN). […] Cell fluorescence was measured with excitation at 340 nm and 380 nm. Ionomycin (10 uM) and EGTA (10 mM) were used for calibration.

cloned AT2 receptor [3] = assay: Intracellular IP3 levels in AT2-transfected COS-7 cells (radioreceptor assay); format: cell-based, rat; settings: 1 uM Ang II, 15 sec, 37 C
Procedure: as §1

[4] = target: rat AT2 receptor (angiotensin II type 2 receptor), clone pMRAT2 (rat); assay: radioligand binding with DTT, membranes of COS-7 cells transfected with pMRAT2
[5] = target: rat AT2 receptor (angiotensin II type 2 receptor), clone pMRAT2 (rat); assay: radioligand saturation binding, crude membranes of COS-7 cells transiently transfected with pMRAT2
[6] = target: mouse AT2 receptor (angiotensin II type 2 receptor), clone MC5 (mouse); assay: radioligand saturation binding with Scatchard plot, membrane fraction of COS-7 cells transfected with mouse AT2 receptor cDNA
[7] = target: rat AT2 receptor (angiotensin II type 2 receptor), clone pMRAT2 (rat); assay: radioligand saturation binding, crude membranes of S293RAT2 cells (293 cells stably transfected with pMRAT2)
mouse AT1b receptor [8] = target: mouse AT1b receptor (mouse, UniProt P29755); assay: emulsion autoradiography of COS-7 cells transfected with the mouse AT1b receptor clone, 200 pM radioligand
[9] = target: T3, rat AT2 receptor (angiotensin II type 2 receptor), clone pMRAT2 (rat); assay: expression cloning: emulsion autoradiography of transfected COS-7 cells, 200 pM radioligand with or without DuP753
T3 chain: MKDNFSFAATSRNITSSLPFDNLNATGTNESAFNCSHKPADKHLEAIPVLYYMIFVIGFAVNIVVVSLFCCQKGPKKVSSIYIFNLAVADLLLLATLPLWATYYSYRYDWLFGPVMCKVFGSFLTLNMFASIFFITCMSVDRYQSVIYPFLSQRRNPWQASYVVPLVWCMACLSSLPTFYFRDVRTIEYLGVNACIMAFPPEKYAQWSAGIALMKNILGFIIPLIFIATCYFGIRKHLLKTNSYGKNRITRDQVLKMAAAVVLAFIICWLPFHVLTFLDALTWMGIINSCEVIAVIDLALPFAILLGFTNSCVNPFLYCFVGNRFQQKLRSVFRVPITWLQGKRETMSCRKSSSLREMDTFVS
Procedure: cDNA prepared from size-fractionated (>1 kb) poly(A)^+ RNA (Sprague-Dawley whole rat fetus, 18 days postcoitum) was ligated into an expression vector pcDNAI (Invitrogen), and amplified in 900 pools of 1,000 clones. Plasmid DNA prepared from every 8 pools by the alkali lysis method was transfected over 2–3 h using DEAE-dextran/chloroquine into COS-7 cells grown on glass chamber slides (Nunc) (Mathews, L. S. & Vale, W. W. Cell 65, 973–982 (1991)). […] Cells were then washed four times with cold 50 mM Tris-HCl, pH 7.4, fixed with 0.1% glutaraldehyde at 4 C and subjected to emulsion autoradiography (Mathews, L. S. & Vale, W. W. Cell 65, 973–982 (1991)). […] Sequencing of both strands of clone pMRAT2 was done by the dideoxy chain termination method with Sequenase (USB).

- competition of [125I]CGP42112A binding (mouse AT2 receptor; at a concentration up to 10^-5 M): virtually inactive
- effect in competition (displacement of 125I-CGP42112A) (rat AT2 receptor; 150 pM radioligand): no effect
Molecule: CCCCc1nc(Cl)c(CO)n1Cc1ccc(-c2ccccc2-c2nn[nH]n2)cc1 [DuP753]
- effect on positive staining (125I-[Sar1,Ile8]-Ang II binding) (mouse AT1b receptor [1]): completely abolished

Molecule: Cc1cc(Cn2cnc3c2C[C@@H](C(=O)O)N(C(=O)C(c2ccccc2)c2ccccc2)C3)ccc1N(C)C [PD123319]
- rank order of competition of [125I]CGP42112A binding (mouse AT2 receptor): [Sar^1,Ile^8 ]-Ang II=CGP42112A≥Ang II>PD123319>Ang I
- order of inhibition potency (competition profiles) (rat AT2 receptor; 150 pM radioligand): [Sar^1,Ile^8 ]-Ang II=CGP42112A≥Ang II>PD123319^10,15 >Ang I

Molecule: Ang I: Ang I, purchased from Sigma (DRVYIHPFHL)
- rank order of competition of [125I]CGP42112A binding (mouse AT2 receptor): [Sar^1,Ile^8 ]-Ang II=CGP42112A≥Ang II>PD123319>Ang I
- order of inhibition potency (competition profiles) (rat AT2 receptor; 150 pM radioligand): [Sar^1,Ile^8 ]-Ang II=CGP42112A≥Ang II>PD123319^10,15 >Ang I

Molecule: Ang II: Angiotensin II is an octapeptide hormone
- increase of intracellular calcium (cloned AT2 receptor [2]): failed to increase
- increase of IP3 (cloned AT2 receptor [3]): failed to increase

Molecule: Ang II: Angiotensin II is an octapeptide hormone (DRVYIHPF)
- rank order of competition of [125I]CGP42112A binding (mouse AT2 receptor): [Sar^1,Ile^8 ]-Ang II=CGP42112A≥Ang II>PD123319>Ang I

- increase of binding affinity by DTT (rat AT2 receptor; with DTT): 50-100%
Molecule: CGP42112A
- rank order of competition of [125I]CGP42112A binding (mouse AT2 receptor): [Sar^1,Ile^8 ]-Ang II=CGP42112A≥Ang II>PD123319>Ang I
- order of inhibition potency (competition profiles) (rat AT2 receptor; 150 pM radioligand): [Sar^1,Ile^8 ]-Ang II=CGP42112A≥Ang II>PD123319^10,15 >Ang I

- increase of binding affinity by DTT [4]: 50 to 100%
Molecule: CGP42112A (unlabelled) (ligand)

Molecule: [Sar^1,Ile^8 ]-Ang II: a non-selective Ang II receptor antagonist
- rank order of competition of [125I]CGP42112A binding (mouse AT2 receptor): [Sar^1,Ile^8 ]-Ang II=CGP42112A≥Ang II>PD123319>Ang I
- order of inhibition potency (competition profiles) (rat AT2 receptor; 150 pM radioligand): [Sar^1,Ile^8 ]-Ang II=CGP42112A≥Ang II>PD123319^10,15 >Ang I

- Kd [5]: 0.17 nM
- Kd [6]: 0.12 nM
- Kd [7]: 0.18 nM
Molecule: [^125 I]CGP42112A (ligand)

- binding result (mouse AT1b receptor [8]): binds
- binding result [9]: binds
B1: ^125 I-[Sar^1,Ile^8]-Ang II (peptide)
peptide: GRVYIHPI
modifications: Sar at position 1, Ile at position 8, 125I label, as printed ^125 I-[Sar^1,Ile^8]-Ang II

— patent publication US5556780A, “CDNAS encoding mouse and rat type-2 angiotensin II receptors and their expression in host cells” (The Board of Trustees for the Leland Stanford Junior …, priority 1993, dated 1996)
